B1: Azoarcus group I ribozyme (parent)
chain: GUGCCUUGCGCCGGGAAACCACGCAAGGGAUGGUGUCAAAUUCGGCGAAACCUAAGCGCCCGCCCGGGCGUAUGGCAACGCCGAGCCAAGCUUCGGCGCCUGCGCCGAUGAAGGUGUAGAGACUAGACGGCACCCACCUAAGGCAAACGCUAUGGUGAAGGCAUAGUCCAGGGAGUGGCGAAAGUCACACAAACCGG

The variants in this series derive from B1. Put plainly: reverse-splicing fitness (ratio to wild type); higher = more active; in vitro selection; Mg2+ level not given. The procedure, abridged: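 An in vitro group I ribozyme library with randomized positions was T7-transcribed and gel-purified. In triplicate, 10 pmol RNA in EPPS pH 7.5 was reacted with 50 pmoles of a 30-nt RNA substrate for 1 h at 37 °C across several added MgCl2 levels (1–48 mM), then stopped with EDTA. Products were reverse transcribed from a substrate-complementary primer, PCR-amplified and sequenced (HiSeq 4000). Fitness is a variant's read proportion after selection over that before, normalised to wild type.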
For the variant C82A A120G A145G C150U C169A, the reverse-splicing fitness came to 0.0179.
Under C82A A145C C169G U176A stands 0.0247.
In the case of A120C A145C C150G C169A U176A it was 0.00776; in that of A111C A120U A145G C150A C169G U176C, 0.00682; in that of C82U A111C A120C C150U C169A U176G, 0.00672.
With C82U A111C A120U A145G C150G C169U U176G, the reverse-splicing fitness is 0.00411.
Under C82G A111C A120C A145C C169U U176A stands 0.0165; under C82U A111G A120C A145C C150G U176A, 0.00388.
On to C82G A111G A120C A145G C150U C169A U176G, for which the reverse-splicing fitness worked out at 0.00689.
Under C82A A120C A145U C169A U176C stands 0.0124; under C82A A111G A120G A145G C150U U176C, 0.0182; under C82G A111G A120U C150G C169G U176C, 0.00486.
Turning to A111G A120G A145U C150G C169G U176C, the reverse-splicing fitness was found to be 0.00471.
Under C82U A120U A145G C150G C169U U176A stands 0.00708; under C82A A120C A145U C169A, 0.00925; under C82U A111C A120U A145G C150A, 0.00865.
Take C82G A111U A145G C150A C169U U176G: the reverse-splicing fitness amounted to 0.00791.
For the variant C82G A145C U176A, the reverse-splicing fitness turned out to be 0.378.
Under C82A A111C A145U C150G C169U U176A stands 0.00845; under C82G A120G A145C C150G C169G U176A, 0.00772; under C82G A111U A120U C150U U176G, 0.00391.
Under A120G C150A U176A stands 0.0445; under C82U A111C A120C A145U C150G C169G, 0.00628.
For the variant C82A A111U A120U A145G C150G C169G, the reverse-splicing fitness came to 0.00757.
Under A111G A120G A145U C150A C169G U176C stands 0.0243; under C82G A120U A145G C150G C169A U176C, 0.00809; under C82G A120U A145U C150U C169G, 0.00513.
In the case of C82A A120G A145U C150U C169G U176C, the reverse-splicing fitness turned out to be 0.0154.
On to C82A A120U C169G U176G, for which the reverse-splicing fitness was determined as 0.00153.
C82U A111U A120G A145G C150U C169A: the reverse-splicing fitness turned out to be 0.00995.
In the case of C82G A111C A120G A145C C150G C169U U176A it was 0.00907.
For C82A A111U A120G A145U C150A C169U U176G, the reverse-splicing fitness was 0.00491.
On to C82U A120U A145C C150G C169U U176C, for which the reverse-splicing fitness was 0.00224.
In the case of A111U A120G A145G C150A U176G it was 0.00712; in that of C82A A111G A120G A145G C169G, 0.0122.
Under C82G A111G A145G C150G C169G U176G stands 0.0064; under C82G A111G A120C A145C C150G C169G U176G, 0.006; under C82G A111C C150G C169A, 0.00894.
In the case of C82U A111G A120G A145G C150A C169G U176A it was 0.0174; in that of C82A A111C A120C C150A C169U U176G, 0.00868.
Regarding C82G A111U A120G A145U C169U U176C, the reverse-splicing fitness turned out to be 0.0158.
In the case of C82G A111U A120G A145U C169U U176G, the reverse-splicing fitness is 0.00419.
Under C82G A111G A120U A145U C169G U176A stands 0.0022; under C82U C150G C169G U176G, 0.00464; under C82G A120C A145U C169A U176A, 0.0121.
Consider C82U A111U A120U A145U U176G, for which the reverse-splicing fitness is 0.00339.
Consider C82U A120C C150G U176A, for which the reverse-splicing fitness was determined as 0.00635.
For C82U A111U A120C C150U C169A U176C, the reverse-splicing fitness was 0.0129.
Under C82G A111G A120U A145U C150A U176C stands 0.00553.
In the case of C82A A111U A120U A145U C150U U176C it was 0.00878; in that of C82G A111U A120U A145C U176G, 0.00404.
As to A111U A120C A145C C150G C169U U176A, the reverse-splicing fitness turned out to be 0.0109.
In the case of C82A A145U C150A C169G it was 0.00813; in that of C82A A111G A120G A145G C150G C169U U176A, 0.0118.
In the case of A111U A145C C150U it was 0.661; in that of C82A A111U A145G C150A C169G U176G, 0.00681; in that of C82A A120U C150A C169U U176C, 0.00414.
In the case of A111G A145C C150A C169A U176C it was 0.00515; in that of C82A A111C A120C A145U C150A C169A U176G, 0.00859.
For the variant A111G A145U C169U U176A, the reverse-splicing fitness was 0.0488.
In the case of C82A A120G A145U C150A C169G U176A it was 0.0133.
Under C82G A111G A120C A145C C150U C169A U176G stands 0.00589; under C82A C150U C169U U176A, 0.0141.
Consider C82U A120C A145U C150A C169U U176G, for which the reverse-splicing fitness was determined as 0.00413.
In the case of A111G A120C C150U it was 0.528; in that of C82A A111U A145C C169A, 0.00733.
Consider C82G A120C C150U C169U U176A, for which the reverse-splicing fitness came to 0.0159.
In the case of C82G A111U A120U U176A it was 0.0109.
In the case of C82A A111U A120G A145G, the reverse-splicing fitness came to 0.0152.
In the case of C82G A111U A120G A145U C150A C169U it was 0.00711.
Under C82U A111C A120G A145U C150U C169U stands 0.00803; under A145U U176C, 0.911; under C82U A111U A120U C150G C169U U176G, 0.00264.
As for C82U A111C A120G A145C C150G C169A, the reverse-splicing fitness came out at 0.00748.
With C82U A120U A145C C150G C169G U176A, the reverse-splicing fitness stood at 0.00206.
Take C82U A120U A145U C150A C169A U176C: the reverse-splicing fitness was 0.00203.
Take C82U A111G C150U U176A: the reverse-splicing fitness was 0.102.
Under A111C A120C C150U U176A stands 0.128.
In the case of C82G A111C A120C A145C C150U C169G U176A it was 0.0246; in that of A111U A120C A145C C150G C169G U176C, 0.0059; in that of C82A A111G A120G A145C C169G, 0.0122.
As for A111G A120C A145U C150G U176C, the reverse-splicing fitness came out at 0.0545.
Under A111G A120C A145U C150G U176G stands 0.00444.
On to A111G A120U C150A C169U, for which the reverse-splicing fitness was 0.0125.

Source of the values: the RNAGym collection of RNA variant scans (doi:10.1093/molbev/msab373).
